# In patent publication US20170022275A1 (Dana-Farber, published 2017):
# T1: MICA*009 (human, UniProt Q29983 26-307)
# T1 construct: also called MICA allele 009
# T1 chain: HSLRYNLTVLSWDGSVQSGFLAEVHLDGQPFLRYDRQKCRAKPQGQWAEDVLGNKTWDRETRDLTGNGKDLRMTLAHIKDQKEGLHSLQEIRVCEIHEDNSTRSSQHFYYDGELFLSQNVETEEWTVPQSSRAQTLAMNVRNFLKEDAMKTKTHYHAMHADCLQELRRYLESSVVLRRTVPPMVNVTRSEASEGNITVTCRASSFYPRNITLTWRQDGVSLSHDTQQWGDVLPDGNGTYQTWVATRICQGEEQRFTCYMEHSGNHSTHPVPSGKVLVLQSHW
# Experiments:
# [1] = molecular target: MICA antigen (UniGene Hs.130838) with C-terminal BirA tag (human) (UniProt Q29983); assay: flow cytometry of MICA-coated streptavidin beads, antibody directly PE-conjugated; 0.002 µg/ml; uncoated SA bead: 2.16
# Chain of MICA antigen (UniGene Hs.130838) with C-terminal BirA tag (human) (Q29983 other isoform, or with tags, fused parts or gaps limits assumed): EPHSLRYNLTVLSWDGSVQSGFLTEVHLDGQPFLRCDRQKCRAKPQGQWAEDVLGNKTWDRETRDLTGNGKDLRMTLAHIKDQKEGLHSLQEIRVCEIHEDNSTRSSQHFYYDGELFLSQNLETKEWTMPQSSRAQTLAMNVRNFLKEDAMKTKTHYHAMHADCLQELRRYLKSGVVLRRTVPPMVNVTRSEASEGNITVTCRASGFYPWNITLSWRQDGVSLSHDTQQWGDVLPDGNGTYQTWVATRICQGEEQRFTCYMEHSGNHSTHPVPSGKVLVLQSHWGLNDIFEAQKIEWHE
# [2] = molecular target: MICA antigen (UniGene Hs.130838) with C-terminal BirA tag (human) (UniProt Q29983); assay: flow cytometry of MICA-coated streptavidin beads, antibody directly PE-conjugated; legend box says 0.12ug, the label in the panel says 0.05 µg/ml (they do not agree); uncoated SA bead: 1.95
# [3] = molecular target: MICA on the surface of cells (human) (UniProt Q29983); assay: flow cytometry on B16 melanoma cells transduced with human MICA, antibody 10 µg/ml; B16 MICA unstained 11.4; same antibody on untransduced B16: 7.49 (B16 unstained 7.12)
# Chain of MICA on the surface of cells (human) (Q29983 24-383): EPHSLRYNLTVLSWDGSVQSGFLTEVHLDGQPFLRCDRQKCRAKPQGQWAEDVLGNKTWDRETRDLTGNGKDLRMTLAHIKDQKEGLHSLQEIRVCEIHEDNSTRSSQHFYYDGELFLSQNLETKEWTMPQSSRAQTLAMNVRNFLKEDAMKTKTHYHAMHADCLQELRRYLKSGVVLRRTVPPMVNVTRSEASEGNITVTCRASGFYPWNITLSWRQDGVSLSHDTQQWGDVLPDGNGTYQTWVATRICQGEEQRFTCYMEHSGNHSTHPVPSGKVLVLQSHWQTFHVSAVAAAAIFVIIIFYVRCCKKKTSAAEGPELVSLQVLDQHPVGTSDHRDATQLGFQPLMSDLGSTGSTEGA
# [4] = molecular target: MICA antigen (UniGene Hs.130838) with C-terminal BirA tag (human) (UniProt Q29983); assay: flow cytometry of MICA-coated streptavidin beads, antibody directly PE-conjugated; legend box says 0.005ug, the label in the panel says 1.2 µg/ml (they do not agree); uncoated SA bead: 1.98
# [5] = molecular target: MICA antigen (UniGene Hs.130838) with C-terminal BirA tag (human) (UniProt Q29983); assay: flow cytometry of MICA-coated streptavidin beads, antibody directly PE-conjugated; legend box says 0.001ug, the label in the panel says 0.24 µg/ml (they do not agree); uncoated SA bead: 1.95
# [6] = molecular target: MICA antigen (UniGene Hs.130838) with C-terminal BirA tag (human) (UniProt Q29983); assay: flow cytometry of MICA-coated streptavidin beads, antibody directly PE-conjugated; legend box says 0.024ug, the label in the panel says 0.01 µg/ml (they do not agree); uncoated SA bead: 1.95
# [7] = molecular target: MICA antigen (UniGene Hs.130838) with C-terminal BirA tag (human) (UniProt Q29983); assay: flow cytometry of MICA-coated streptavidin beads, Alexa488 anti-human IgG; antibody 30 µg/ml; uncoated SA bead: 3.53
# [8] = molecular target: MICA antigen (UniGene Hs.130838) with C-terminal BirA tag (human) (UniProt Q29983); assay: flow cytometry of MICA-coated streptavidin beads, Alexa488 anti-human IgG; antibody 6 µg/ml; uncoated SA bead: 2.63
# [9] = molecular target: MICA antigen (UniGene Hs.130838) with C-terminal BirA tag (human) (UniProt Q29983); assay: flow cytometry of MICA-coated streptavidin beads, Alexa488 anti-human IgG; antibody 0.05 µg/ml; uncoated SA bead: 2.18
# [10] = molecular target: MICA antigen (UniGene Hs.130838) with C-terminal BirA tag (human) (UniProt Q29983); assay: flow cytometry of MICA-coated streptavidin beads, Alexa488 anti-human IgG; antibody 1.2 µg/ml; uncoated SA bead: 2.16
# [11] = molecular target: MICA antigen (UniGene Hs.130838) with C-terminal BirA tag (human) (UniProt Q29983); assay: flow cytometry of MICA-coated streptavidin beads, Alexa488 anti-human IgG; antibody 0.24 µg/ml; uncoated SA bead: 2.3
# MICA*009 = molecular target: T1, MICA*009; assay: array of overlapping 20-aa peptides of MICA*009 extracellular domains
molecule,measurement,setting,value
"commercially available anti-MICA/MICB monoclonal antibody (clone 6D4), BioLegend",unnamed fluorescence number (FL2-H),[1],4.31
same,unnamed fluorescence number (FL2-H),[2],391
same,Geom. Mean:FL1-H,[3],188
same,unnamed fluorescence number (FL2-H),[4],65.9
same,unnamed fluorescence number (FL2-H),[5],16.8
same,unnamed fluorescence number (FL2-H),[6],194
negative control antibody (TTCF specific),unnamed fluorescence number (FL1-H),[7],3.43
same,unnamed fluorescence number (FL1-H),[8],2.62
same,unnamed fluorescence number (FL1-H),[9],2.23
same,unnamed fluorescence number (FL1-H),[10],2.27
same,unnamed fluorescence number (FL1-H),[11],2.28
"CM33322 Ab4 (antibody, V domains shown, also called anti-MICA antibody ID-11; antibody ID 11) VH: QVQLQESGPGLVRPSGTLSLTCAVSGGSIDYSNWWGWVRQVPGKGLEWIGEVYHTGATHYNPSLERRCIISVDKSNNQVSLQLTSVTAADSAIYYCARERGTHCDGNRCYYVFFDHWGQGIPVTVSS VL: DIVMTQTPLSSPVTLGQPASISCRSSESLVHWDGTTYLSWFHQRPGQPPRLLIYKVSNRFSGVPDRFSGSGAGTDFTLKISRVEADDVGIYYCMQATQFPRTFGQGTKVEIKR",binding result,MICA*009,binds
